This note sets out measurements from patent US20210388087A1 (Chugai, published 2021).

B1: dBBDu183H V100cK / dBBDu072L (antibody, name in Kabat numbering, V domains shown)
VH: QVQLVESGGGLVQPGRSLRLSCAASGFTFSNAWMHWVRQAPGKGLEWVAQIKDKGNAYAAYYAPSVKGRFTISRDDSKNSIYLQMNSLKTEDTAVYYCHYVHYASASTKLPAFGVDAWGQGTTVTVSS
VL: DIVMTQSPLSLPVTPGEPASISCQASQELVHMNRNTYLHWYQQKPGQAPRLLIYKVSNRFPGVPDRFSGSGSGTDFTLKISRVEAEDVGVYYCAQGTSVPFTFGQGTKLEIK
notes: as m1, one VH change
B2: dBBDu183H V100iT / dBBDu072L (antibody, name in Kabat numbering, V domains shown)
VH: QVQLVESGGGLVQPGRSLRLSCAASGFTFSNAWMHWVRQAPGKGLEWVAQIKDKGNAYAAYYAPSVKGRFTISRDDSKNSIYLQMNSLKTEDTAVYYCHYVHYASASTVLPAFGTDAWGQGTTVTVSS
VL: DIVMTQSPLSLPVTPGEPASISCQASQELVHMNRNTYLHWYQQKPGQAPRLLIYKVSNRFPGVPDRFSGSGSGTDFTLKISRVEAEDVGVYYCAQGTSVPFTFGQGTKLEIK
notes: as m1, one VH change
B3: dBBDu183H V100cT / dBBDu072L (antibody, name in Kabat numbering, V domains shown)
VH: QVQLVESGGGLVQPGRSLRLSCAASGFTFSNAWMHWVRQAPGKGLEWVAQIKDKGNAYAAYYAPSVKGRFTISRDDSKNSIYLQMNSLKTEDTAVYYCHYVHYASASTTLPAFGVDAWGQGTTVTVSS
VL: DIVMTQSPLSLPVTPGEPASISCQASQELVHMNRNTYLHWYQQKPGQAPRLLIYKVSNRFPGVPDRFSGSGSGTDFTLKISRVEAEDVGVYYCAQGTSVPFTFGQGTKLEIK
notes: as m1, one VH change
B4: dBBDu183H Y94D / dBBDu072L (antibody, name in Kabat numbering, V domains shown)
VH: QVQLVESGGGLVQPGRSLRLSCAASGFTFSNAWMHWVRQAPGKGLEWVAQIKDKGNAYAAYYAPSVKGRFTISRDDSKNSIYLQMNSLKTEDTAVYYCHDVHYASASTVLPAFGVDAWGQGTTVTVSS
VL: DIVMTQSPLSLPVTPGEPASISCQASQELVHMNRNTYLHWYQQKPGQAPRLLIYKVSNRFPGVPDRFSGSGSGTDFTLKISRVEAEDVGVYYCAQGTSVPFTFGQGTKLEIK
notes: as m1, one VH change
B5: dBBDu183H Y94S / dBBDu072L (antibody, name in Kabat numbering, V domains shown)
VH: QVQLVESGGGLVQPGRSLRLSCAASGFTFSNAWMHWVRQAPGKGLEWVAQIKDKGNAYAAYYAPSVKGRFTISRDDSKNSIYLQMNSLKTEDTAVYYCHSVHYASASTVLPAFGVDAWGQGTTVTVSS
VL: DIVMTQSPLSLPVTPGEPASISCQASQELVHMNRNTYLHWYQQKPGQAPRLLIYKVSNRFPGVPDRFSGSGSGTDFTLKISRVEAEDVGVYYCAQGTSVPFTFGQGTKLEIK
notes: as m1, one VH change
B6: dBBDu183H V100cR / dBBDu072L (antibody, name in Kabat numbering, V domains shown)
VH: QVQLVESGGGLVQPGRSLRLSCAASGFTFSNAWMHWVRQAPGKGLEWVAQIKDKGNAYAAYYAPSVKGRFTISRDDSKNSIYLQMNSLKTEDTAVYYCHYVHYASASTRLPAFGVDAWGQGTTVTVSS
VL: DIVMTQSPLSLPVTPGEPASISCQASQELVHMNRNTYLHWYQQKPGQAPRLLIYKVSNRFPGVPDRFSGSGSGTDFTLKISRVEAEDVGVYYCAQGTSVPFTFGQGTKLEIK
notes: as m1, one VH change
B7: dBBDu183H Y94Q / dBBDu072L (antibody, name in Kabat numbering, V domains shown)
VH: QVQLVESGGGLVQPGRSLRLSCAASGFTFSNAWMHWVRQAPGKGLEWVAQIKDKGNAYAAYYAPSVKGRFTISRDDSKNSIYLQMNSLKTEDTAVYYCHQVHYASASTVLPAFGVDAWGQGTTVTVSS
VL: DIVMTQSPLSLPVTPGEPASISCQASQELVHMNRNTYLHWYQQKPGQAPRLLIYKVSNRFPGVPDRFSGSGSGTDFTLKISRVEAEDVGVYYCAQGTSVPFTFGQGTKLEIK
notes: as m1, one VH change
B8: dBBDu183H Y94T / dBBDu072L (antibody, name in Kabat numbering, V domains shown)
VH: QVQLVESGGGLVQPGRSLRLSCAASGFTFSNAWMHWVRQAPGKGLEWVAQIKDKGNAYAAYYAPSVKGRFTISRDDSKNSIYLQMNSLKTEDTAVYYCHTVHYASASTVLPAFGVDAWGQGTTVTVSS
VL: DIVMTQSPLSLPVTPGEPASISCQASQELVHMNRNTYLHWYQQKPGQAPRLLIYKVSNRFPGVPDRFSGSGSGTDFTLKISRVEAEDVGVYYCAQGTSVPFTFGQGTKLEIK
notes: as m1, one VH change
B9: dBBDu183H Y94N / dBBDu072L (antibody, name in Kabat numbering, V domains shown)
VH: QVQLVESGGGLVQPGRSLRLSCAASGFTFSNAWMHWVRQAPGKGLEWVAQIKDKGNAYAAYYAPSVKGRFTISRDDSKNSIYLQMNSLKTEDTAVYYCHNVHYASASTVLPAFGVDAWGQGTTVTVSS
VL: DIVMTQSPLSLPVTPGEPASISCQASQELVHMNRNTYLHWYQQKPGQAPRLLIYKVSNRFPGVPDRFSGSGSGTDFTLKISRVEAEDVGVYYCAQGTSVPFTFGQGTKLEIK
notes: as m1, one VH change
B10: dBBDu183H Y94F / dBBDu072L (antibody, name in Kabat numbering, V domains shown)
VH: QVQLVESGGGLVQPGRSLRLSCAASGFTFSNAWMHWVRQAPGKGLEWVAQIKDKGNAYAAYYAPSVKGRFTISRDDSKNSIYLQMNSLKTEDTAVYYCHFVHYASASTVLPAFGVDAWGQGTTVTVSS
VL: DIVMTQSPLSLPVTPGEPASISCQASQELVHMNRNTYLHWYQQKPGQAPRLLIYKVSNRFPGVPDRFSGSGSGTDFTLKISRVEAEDVGVYYCAQGTSVPFTFGQGTKLEIK
notes: as m1, one VH change
B11: dBBDu183H V100cW / dBBDu072L (antibody, name in Kabat numbering, V domains shown)
VH: QVQLVESGGGLVQPGRSLRLSCAASGFTFSNAWMHWVRQAPGKGLEWVAQIKDKGNAYAAYYAPSVKGRFTISRDDSKNSIYLQMNSLKTEDTAVYYCHYVHYASASTWLPAFGVDAWGQGTTVTVSS
VL: DIVMTQSPLSLPVTPGEPASISCQASQELVHMNRNTYLHWYQQKPGQAPRLLIYKVSNRFPGVPDRFSGSGSGTDFTLKISRVEAEDVGVYYCAQGTSVPFTFGQGTKLEIK
notes: as m1, one VH change
B12: dBBDu183H V100cY / dBBDu072L (antibody, name in Kabat numbering, V domains shown)
VH: QVQLVESGGGLVQPGRSLRLSCAASGFTFSNAWMHWVRQAPGKGLEWVAQIKDKGNAYAAYYAPSVKGRFTISRDDSKNSIYLQMNSLKTEDTAVYYCHYVHYASASTYLPAFGVDAWGQGTTVTVSS
VL: DIVMTQSPLSLPVTPGEPASISCQASQELVHMNRNTYLHWYQQKPGQAPRLLIYKVSNRFPGVPDRFSGSGSGTDFTLKISRVEAEDVGVYYCAQGTSVPFTFGQGTKLEIK
notes: as m1, one VH change
B13: dBBDu183H V100cQ / dBBDu072L (antibody, name in Kabat numbering, V domains shown)
VH: QVQLVESGGGLVQPGRSLRLSCAASGFTFSNAWMHWVRQAPGKGLEWVAQIKDKGNAYAAYYAPSVKGRFTISRDDSKNSIYLQMNSLKTEDTAVYYCHYVHYASASTQLPAFGVDAWGQGTTVTVSS
VL: DIVMTQSPLSLPVTPGEPASISCQASQELVHMNRNTYLHWYQQKPGQAPRLLIYKVSNRFPGVPDRFSGSGSGTDFTLKISRVEAEDVGVYYCAQGTSVPFTFGQGTKLEIK
notes: as m1, one VH change
B14: dBBDu183H V100cS / dBBDu072L (antibody, name in Kabat numbering, V domains shown)
VH: QVQLVESGGGLVQPGRSLRLSCAASGFTFSNAWMHWVRQAPGKGLEWVAQIKDKGNAYAAYYAPSVKGRFTISRDDSKNSIYLQMNSLKTEDTAVYYCHYVHYASASTSLPAFGVDAWGQGTTVTVSS
VL: DIVMTQSPLSLPVTPGEPASISCQASQELVHMNRNTYLHWYQQKPGQAPRLLIYKVSNRFPGVPDRFSGSGSGTDFTLKISRVEAEDVGVYYCAQGTSVPFTFGQGTKLEIK
notes: as m1, one VH change

The target in this experiment is T1, Human CD137 ECD (human).
T1 construct: also called 4-1BB
T1 sequence (chain, as listed by the source limits assumed): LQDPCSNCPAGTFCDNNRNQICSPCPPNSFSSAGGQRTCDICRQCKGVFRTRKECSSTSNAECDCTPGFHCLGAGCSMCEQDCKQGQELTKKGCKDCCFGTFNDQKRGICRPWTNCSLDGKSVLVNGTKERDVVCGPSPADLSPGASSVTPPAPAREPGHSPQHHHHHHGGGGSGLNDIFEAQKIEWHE
The experiment in a line: SPR, vs parent H183/L072.
Consider B1, for which the “fold change of affinity” value is 0.5 fold.

For the molecule B2, the “fold change of affinity” value amounted to 0.2 fold.

For the molecule B3, the “fold change of affinity” value stood at 0.5 fold.

As to B4, the “fold change of affinity” value amounted to 0.2 fold.

Take B5: the “fold change of affinity” value was 1.4 fold.

On to B6, for which the “fold change of affinity” value amounted to 0.7 fold.

As for B7, the “fold change of affinity” value is 0.3 fold.

Take B8: the “fold change of affinity” value was 0.6 fold.

For the molecule B9, the “fold change of affinity” value was found to be 0.1 fold.

For B10, the “fold change of affinity” value was determined as 1.8 fold.

Turning to B11, the “fold change of affinity” value came to 0.6 fold.

B12: the “fold change of affinity” value stood at 0.6 fold.

B13: the “fold change of affinity” value amounted to 1.4 fold.

Take B14: the “fold change of affinity” value was found to be 0.5 fold.
